Laboratory results: article PMC7870927, “Mechanism of the small ATP-independent chaperone Spy is substrate specific” (Nature Communications, 2021)
Positions count from the first letter of the chain named. Values joined by “and” are separate entries in the source; they are usually repeats but may differ in a detail not shown here. Identical values can stand only once.

T1: apoflavodoxin from Anabaena PCC 7119, L105A I109A double mutant (Anabaena PCC 7119, UniProt P0A3E0 3-170, L105A | I109A)
T1 sequence: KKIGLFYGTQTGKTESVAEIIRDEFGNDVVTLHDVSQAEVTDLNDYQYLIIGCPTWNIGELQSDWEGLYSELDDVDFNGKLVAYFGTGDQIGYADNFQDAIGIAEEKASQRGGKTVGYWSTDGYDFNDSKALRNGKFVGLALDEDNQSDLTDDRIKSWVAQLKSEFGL

T2: apoflavodoxin from Anabaena PCC 7119, wild type (Anabaena PCC 7119, UniProt P0A3E0 3-170)
T2 construct: flavodoxin (apo form, without FMN) from Anabaena PCC 7119; gene codon-optimised, synthesised by GenScript; The same protein was used native and urea-denatured (5 M urea, then diluted: state U*); the assays tell the two apart; [U-2H,15N,13C]-labelled for the NMR titration; also called AnFld; AnFld WT; source: E. coli BL21 (DE3), purified (Ni-His Trap, ULP1 cleavage, HiTrap Q, Superdex 75; …)
T2 sequence: T1 sequence with A104L, A108I

T3: apoflavodoxin from Anabaena PCC 7119, wild type (Anabaena PCC 7119, UniProt P0A3E0 3-170)
T3 chain: T1 sequence with A104L, A108I

T4: apoflavodoxin from Anabaena PCC 7119, F98N mutant (Anabaena PCC 7119, UniProt P0A3E0 3-170, F98N)
T4 sequence: T1 sequence with F97N, A104L, A108I

T5: apoflavodoxin from Anabaena PCC 7119, L105A I109A double mutant (Anabaena PCC 7119, UniProt P0A3E0 3-170, L105A | I109A)
T5 construct: flavodoxin (apo form) from Anabaena PCC 7119 with the two destabilising mutations L105A and I109A; also called AnFld 2A; AnFld2A; source: E. coli BL21 (DE3), purified (same protocol as AnFld WT); not shown: His6, N-terminal, cleaved; SUMO, N-terminal, cleaved
T5 sequence: T1 sequence

T6: apoflavodoxin from Anabaena PCC 7119, F98N mutant (Anabaena PCC 7119, UniProt P0A3E0 3-170, F98N)
T6 construct: also called AnFld F98N; I^T mimic; source: E. coli BL21 (DE3), purified (same protocol as AnFld WT); not shown: His6, N-terminal, cleaved; SUMO, N-terminal, cleaved
T6 sequence: T1 sequence with F97N, A104L, A108I

B1: Spy (small bacterial ATP-independent chaperone) (natural protein, UniProt P77754 24-161, looked up)
chain: ADTTTAAPADAKPMMHHKGKFGPHQDMMFKDLNLTDAQKQQIREIMKGQRDQMKRPPLEERRAMHDIIASDTFDKVKAEAQIAKMEEQRKANMLAHMETQNKIYNILTPEQKKQFNANFEKRLTERPAAKGKMPATAE
notes: chaperone Spy; Used and counted as a dimer throughout ('Spy dimer'); also called Spy dimer; SpyD; source: E. coli BL21 (DE3), purified (Ni-His Trap, ULP1 cleavage, HiTrap Q, HiLoad Superdex 75); not shown: His6, N-terminal, cleaved; SUMO, N-terminal, cleaved

Legend:
[1] = molecular target: Im7 (intermediate and unfolded states) (Escherichia coli) (UniProt Q03708); settings: cited from earlier work
Sequence of Im7 (intermediate and unfolded states) (Escherichia coli) (Q03708 whole entry): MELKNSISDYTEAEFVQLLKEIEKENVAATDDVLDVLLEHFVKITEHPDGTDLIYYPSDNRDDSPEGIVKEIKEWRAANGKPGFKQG

Fyn SH3 (native) SH3 = Fyn SH3 (native) SH3 (UniProt P06241); settings: cited from earlier work
Sequence of Fyn SH3 (native) SH3 (P06241 82-143): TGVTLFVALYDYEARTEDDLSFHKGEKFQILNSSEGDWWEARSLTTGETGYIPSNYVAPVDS

[2] = molecular target: Im7 (native) (Escherichia coli) (UniProt Q03708); settings: cited from earlier work
Sequence of Im7 (native) (Escherichia coli) (Q03708 whole entry): as the sequence (Q03708 whole entry) above

Fyn SH3 (unfolded) SH3 = Fyn SH3 (unfolded) SH3 (UniProt P06241); settings: cited from earlier work
Sequence of Fyn SH3 (unfolded) SH3 (P06241 82-143): as the sequence (P06241 82-143) above

[3] = molecular target: T1, apoflavodoxin from Anabaena PCC 7119, …; test: ITC; first site (K1)
[4] = molecular target: T7, apoflavodoxin from Azotobacter vinelandii, C69A (Azotobacter vinelandii, UniProt P00324 1-180, C69A); test: AUC; sedimentation velocity of Spy with AnFld or AzoFld, 48,000 r.p.m., absorbance at 280 nm; 2DSA, genetic algorithm, Monte Carlo; settings: both partners purified
T7 construct: flavodoxin (apo form) from Azotobacter vinelandii with C69A; The only AzoFld gene that the methods name is C69A; also called AzoFld; AzoFld C69A; source: E. coli BL21 (DE3), purified (same protocol as AnFld WT); not shown: His6, N-terminal, cleaved; SUMO, N-terminal, cleaved
T7 sequence (P00324 whole entry C70A): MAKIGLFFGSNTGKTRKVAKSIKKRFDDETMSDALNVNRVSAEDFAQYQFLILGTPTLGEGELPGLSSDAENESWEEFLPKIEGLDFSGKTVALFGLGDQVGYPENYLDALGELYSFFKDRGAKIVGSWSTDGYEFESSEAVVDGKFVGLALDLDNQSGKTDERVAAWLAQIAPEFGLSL

[5] = molecular target: T2, apoflavodoxin from Anabaena PCC 7119, …; test: as above; settings: both partners purified
[6] = molecular target: T3, apoflavodoxin from Anabaena PCC 7119, …; test: initial fluorescence from kinetic fits
[7] = molecular target: T1, apoflavodoxin from Anabaena PCC 7119, …; test: ITC; second site (K2)
[8] = molecular target: T4, apoflavodoxin from Anabaena PCC 7119, …; test: ITC; 10 °C
[9] = molecular target: T5, apoflavodoxin from Anabaena PCC 7119, …; test: ITC + other: kinetic unfolding experiments; ITC: 1.2 mM Spy dimer in the syringe, 100 µM AnFld 2A in the cell; 40 mM HEPES-KOH pH 7.5, 100 mM NaCl; one-site or two-site models; two binding-competent conformations of AnFld 2A; settings: both partners purified
[10] = molecular target: T2, apoflavodoxin from Anabaena PCC 7119, …; test: other fluorescence titration; stopped-flow refolding: AnFld denatured in 5 M urea diluted 11.5-fold (0.09 µM final) into HN buffer (40 mM HEPES-KOH pH 7.5, 100 mM NaCl) with Spy dimer, 25 °C; normalised initial tryptophan fluorescence against Spy dimer concentration, one-site binding model; non-native state U* of AnFld; settings: both partners purified
[11] = molecular target: T2, apoflavodoxin from Anabaena PCC 7119, …; test: other fluorescence titration; equilibrium titration of Spy dimer into 17.2 µM native AnFld WT (square hyperbola, one-site) or 10 µM AnFld 2A (quadratic tight-binding model) in HN buffer, 25 °C; intrinsic tryptophan fluorescence at 340 nm; apparent; settings: both partners purified
[12] = molecular target: T5, apoflavodoxin from Anabaena PCC 7119, …; test: as above; settings: both partners purified
[13] = molecular target: T6, apoflavodoxin from Anabaena PCC 7119, …; test: ITC; 550 µM Spy dimer in the syringe, 50 µM AnFld F98N in the cell; 40 mM HEPES-KOH pH 7.5, 100 mM NaCl; 10 °C; one-site binding model; settings: both partners purified
[14] = molecular target: T3, apoflavodoxin from Anabaena PCC 7119, …; test: ITC; 10 °C
[15] = molecular target: T2, apoflavodoxin from Anabaena PCC 7119, …; test: ITC; 550 µM Spy dimer in the syringe, 50 µM AnFld WT in the cell; 40 mM HEPES-KOH pH 7.5, 100 mM NaCl; MicroCal iTC200; temperature not shown; settings: both partners purified

Molecule	Kd [1]	Kd (Fyn SH3 (native) SH3)	Kd [2]	Kd (Fyn SH3 (unfolded) SH3)	Ka [3]	stoichiometry N [4]	stoichiometry N [5]	Kd [6]	Ka [7]	Ka [8]	KD of one of two binding-competent conformations of AnFld 2A [9]	Kd [10]	Kd [11]	Kd [12]	Kd [13]	Ka [14]	Kd [15]
Spy (from UniProt P77754)	4.7 µM	50 µM	20.5 µM	2.9 µM	–	–	–	–	–	–	–	–	–	–	–	–	–
B1	–	–	–	–	2.65e+06 M⁻¹	1 AzoFld per Spy dimer	1 AnFld per Spy dimer	17.7 µM	4.37e+06 M⁻¹	801000 M⁻¹	0.23 µM and 0.38 µM	0.35 µM	40 µM	0.1 µM	1.8 µM	35500 M⁻¹	28.2 µM
